From the Human Domainome abundance scans (Beltran et al. 2025)
± gives the uncertainty stated by the source.

B1: Zinc finger homeobox protein 4, residues 2562 to 2617; numbered along this chain, Q86UP3 (parent)
chain: RLRTTITPEQLEILYEKYLLDSNPTRKMLDHIAREVGLKKRVVQVWFQNTRARERK

Variants of: B1
Assay: abundance fitness (aPCA) (normalised: wild type 0, dead -1); higher = more abundant; growth selection in yeast, the domain comes from the species named
Settings: Homo sapiens

Variant | abundance fitness
S22P | -0.402 ± 0.14
S22R | -0.358 ± 0.067
S22M | -0.155 ± 0.12
S22Y | -0.772 ± 0.18
S22D | 0.035 ± 0.12
S22F | -0.168 ± 0.057
S22K | -0.305 ± 0.12
S22T | -0.078 ± 0.059
S22V | -0.403 ± 0.1
S22C | -0.075 ± 0.13
S22N | -0.429 ± 0.15
S22H | -0.289 ± 0.079
S22L | -0.56 ± 0.088
S22E | 0.248 ± 0.1
S22I | -0.436 ± 0.16
S22G | -0.059 ± 0.059
S22W | -0.461 ± 0.072
K17T | -0.109 ± 0.14
K17V | -0.552 ± 0.23
K17N | 0.008 ± 0.11
K17W | -0.58 ± 0.27
K17Y | 0.767 ± 0.29
K17A | -0.289 ± 0.2
K17S | -0.164 ± 0.16

Variant | abundance fitness
K17Q | -0.033 ± 0.12
K17P | -0.334 ± 0.42
K17L | -0.508 ± 0.33
K17E | -0.081 ± 0.28
K17G | -0.513 ± 0.2
K17H | -0.441 ± 0.36
K17R | -0.258 ± 0.12
K17M | -0.024 ± 0.23
Y15V | -0.206 ± 0.071
Y15T | 0.067 ± 0.086
Y15E | 0.301 ± 0.071
Y15H | 0.085 ± 0.1
Y15C | -0.063 ± 0.069
Y15Q | 0.092 ± 0.068
Y15K | 0.1 ± 0.05
Y15G | 0.009 ± 0.057
Y15N | 0.075 ± 0.094
Y15D | -0.02 ± 0.12
Y15P | -0.781 ± 0.073
Y15L | 0.054 ± 0.059
Y15R | 0.161 ± 0.044
Y15W | 0.048 ± 0.061
Y15I | -0.224 ± 0.093
Y15F | -0.193 ± 0.13

Variant | abundance fitness
N23E | -0.086 ± 0.11
N23Y | -0.062 ± 0.12
N23M | -0.105 ± 0.11
N23P | -0.425 ± 0.18
N23F | 0.301 ± 0.15
N23R | 0.017 ± 0.057
N23S | -0.1 ± 0.061
N23K | -0.054 ± 0.11
N23W | -0.208 ± 0.11
N23H | -0.302 ± 0.27
N23V | -0.356 ± 0.09
N23A | -0.064 ± 0.068
N23L | -0.238 ± 0.065
N23Q | 0.013 ± 0.063
N23I | -0.091 ± 0.15
N23D | -0.039 ± 0.14
N23T | -0.213 ± 0.071
N23G | -0.121 ± 0.072
N23C | -0.738 ± 0.2
L20Q | -0.182 ± 0.072
L20W | -0.124 ± 0.074
L20N | -0.122 ± 0.084
L20S | -0.193 ± 0.058
L20F | -0.062 ± 0.082

Variant | abundance fitness
L20E | -0.092 ± 0.08
L20C | -0.236 ± 0.07
L20I | -0.079 ± 0.072
L20M | -0.112 ± 0.068
L20D | -0.333 ± 0.15
L20V | -0.02 ± 0.063
L20T | -0.19 ± 0.092
L20P | -0.652 ± 0.21
L20R | -0.162 ± 0.075
L20K | 0.035 ± 0.11
L20G | -0.114 ± 0.059
L20A | -0.103 ± 0.07
D21K | -0.727 ± 0.097
D21I | -0.406 ± 0.12
D21C | -0.378 ± 0.11
D21L | -0.474 ± 0.057
D21S | -0.433 ± 0.064
D21T | -0.458 ± 0.061
D21R | -0.796 ± 0.099
D21Y | -0.5 ± 0.063
D21Q | -0.352 ± 0.1
D21P | -0.769 ± 0.3
D21F | -0.302 ± 0.16
D21W | -0.505 ± 0.12

Variant | abundance fitness
D21E | 0.078 ± 0.11
D21A | -0.435 ± 0.085
D21M | -0.673 ± 0.21
D21N | -0.188 ± 0.086
D21G | -0.433 ± 0.081
D21V | -0.465 ± 0.075
L19G | -0.023 ± 0.049
L19S | -0.034 ± 0.071
L19F | -0.065 ± 0.13
L19P | -0.897 ± 0.29
L19E | -0.136 ± 0.11
L19N | -0.091 ± 0.14
L19Y | -0.153 ± 0.15
L19R | -0.112 ± 0.071
L19K | -0.154 ± 0.12
L19Q | -0.214 ± 0.21
L19I | 0.196 ± 0.14
L19W | -0.229 ± 0.085
L19T | -0.175 ± 0.11
L19A | -0.094 ± 0.077
L19V | -0.055 ± 0.064
L19C | -0.084 ± 0.1
L19D | -0.098 ± 0.097
L19M | -0.131 ± 0.1

Variant | abundance fitness
T25P | -0.147 ± 0.13
T25D | -0.193 ± 0.17
T25M | -0.364 ± 0.22
T25E | 0.095 ± 0.075
T25I | -0.526 ± 0.44
T25H | -0.596 ± 0.48
T25A | -0.384 ± 0.11
T25G | -0.331 ± 0.061
T25C | 0.181 ± 0.15
T25L | -0.546 ± 0.13
T25Q | -0.476 ± 0.41
T25N | -0.148 ± 0.094
P24M | -0.687 ± 0.12
P24L | -0.639 ± 0.061
P24K | -0.948 ± 0.2
P24T | -0.947 ± 0.12
P24D | -0.679 ± 0.064
P24V | -0.82 ± 0.098
P24S | -0.968 ± 0.16
P24I | -0.415 ± 0.22
P24R | -0.925 ± 0.07
P24F | -0.503 ± 0.18
P24A | -0.861 ± 0.15
P24G | -0.852 ± 0.099

Variant | abundance fitness
P24H | -0.847 ± 0.2
P24N | -0.754 ± 0.1
P24C | -0.777 ± 0.077
P24E | -0.976 ± 0.13
P24Q | -0.929 ± 0.12
Y18V | -0.764 ± 0.095
Y18M | -0.856 ± 0.32
Y18W | -0.31 ± 0.1
Y18H | -0.773 ± 0.31
Y18N | -0.59 ± 0.42
Y18K | -0.544 ± 0.27
Y18S | -0.975 ± 0.18
Y18L | -0.439 ± 0.13
Y18P | -0.842 ± 0.25
Y18A | -1.06 ± 0.2
Y18C | -0.817 ± 0.077
Y18I | -0.246 ± 0.27
Y18Q | -0.839 ± 0.43
Y18F | 0.425 ± 0.18
Y18T | -0.874 ± 0.23
Y18D | -1.13 ± 0.4
Y18R | -0.659 ± 0.12
Y18E | -0.943 ± 0.22
